# Laboratory results: patent US20240116985A1 (published 2024)
# Starred links: 1 amine or outer side, 2 acyl side, 3 side chain; linkers in the order of their positions; H or OH if unused. Positions of bridges follow the written chain, without caps; N, C: chain ends. Non-standard residues stand in square brackets, D forms with d. Primed or numbered codes have the meaning given here. No end group written: not given here. PyrS2″ = (S)-3-amino-1-((pent-4-en-1-yloxy)carbonyl)pyrrolidine-3-carboxylic acid (stapling residue), C=CCCCOC(=O)N1CC[C@@](N[*:1])(C(=O)[*:2])C1; B5(4) = 2,2-bis(4-pentenyl)glycine = 2-amino-2-(pent-4-en-1-yl)hept-6-enoic acid (stitching residue), C=CCCCC(CCCC=C)(N[*:1])C(=O)[*:2]; (4Pippip)GlnR″ = (S)-5-([1,4'-bipiperidin]-1'-yl)-2-amino-5-oxopentanoic acid, O=C(CC[C@H](N[*:1])C(=O)[*:2])N1CCC(N2CCCCC2)CC1; B5(3) = 2,2-bis(4-pentenyl)glycine (stitching residue), C=CCCCC(CCCC=C)(N[*:1])C(=O)[*:2]; Phe(3-COOH) = N[C@@H](Cc1cccc(C(=O)O)c1)C(=O)O; Phe(2-CF3) = N[C@@H](Cc1ccccc1C(F)(F)F)C(=O)O; Phe(2-Cl) = N[C@@H](Cc1ccccc1Cl)C(=O)O; dαMeGly(allyl) = C=CC[C@@](C)(N)C(=O)O; Ala(cPent) = N[C@@H](CC1CCCC1)C(=O)O; Bta = N[C@@H](Cc1csc2ccccc12)C(=O)O; αAllylPro = C=CC[C@@]1(C(=O)O)CCCN1; tBuAla = CC(C)(C)C[C@H](N)C(=O)O; 3Thi = N[C@@H](Cc1ccsc1)C(=O)O; S8 = C=CCCCCCC[C@](C)(N)C(=O)O; Thr(ol) = C[C@@H](O)[C@H](N)CO; Phe(ol) = N[C@H](CO)Cc1ccccc1; Abu = CC[C@H](N)C(=O)O; Aib = CC(C)(N)C(=O)O
# T1: B-cat-Halo (beta-catenin HaloTag fusion expressed in HEK293 cells) (UniProt P35222 1-781)
# T1 sequence (looked up): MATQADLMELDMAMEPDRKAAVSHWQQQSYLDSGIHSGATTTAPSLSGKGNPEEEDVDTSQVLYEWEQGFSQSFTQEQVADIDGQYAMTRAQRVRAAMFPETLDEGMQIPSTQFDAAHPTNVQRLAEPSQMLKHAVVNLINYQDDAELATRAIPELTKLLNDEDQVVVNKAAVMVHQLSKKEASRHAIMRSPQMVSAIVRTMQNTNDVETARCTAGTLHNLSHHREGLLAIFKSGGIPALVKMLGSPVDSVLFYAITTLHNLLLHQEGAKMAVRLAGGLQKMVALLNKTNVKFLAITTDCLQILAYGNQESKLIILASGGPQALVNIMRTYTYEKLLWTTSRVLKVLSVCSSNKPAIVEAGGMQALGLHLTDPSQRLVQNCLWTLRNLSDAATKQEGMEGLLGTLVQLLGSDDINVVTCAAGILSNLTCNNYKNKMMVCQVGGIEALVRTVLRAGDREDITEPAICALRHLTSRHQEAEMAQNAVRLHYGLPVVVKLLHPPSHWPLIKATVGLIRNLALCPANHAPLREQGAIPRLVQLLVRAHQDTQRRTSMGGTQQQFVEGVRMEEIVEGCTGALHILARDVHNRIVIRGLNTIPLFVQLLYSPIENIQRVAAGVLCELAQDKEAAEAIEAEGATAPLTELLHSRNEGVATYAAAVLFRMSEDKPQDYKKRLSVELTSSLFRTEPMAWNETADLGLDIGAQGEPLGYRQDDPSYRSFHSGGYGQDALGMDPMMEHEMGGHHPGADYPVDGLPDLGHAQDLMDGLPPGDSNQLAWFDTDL
# T2: B-cat-Halo (beta-catenin HaloTag NanoBRET construct expressed in HEK293 cells) (UniProt P35222 2-781)
# T2 sequence (looked up): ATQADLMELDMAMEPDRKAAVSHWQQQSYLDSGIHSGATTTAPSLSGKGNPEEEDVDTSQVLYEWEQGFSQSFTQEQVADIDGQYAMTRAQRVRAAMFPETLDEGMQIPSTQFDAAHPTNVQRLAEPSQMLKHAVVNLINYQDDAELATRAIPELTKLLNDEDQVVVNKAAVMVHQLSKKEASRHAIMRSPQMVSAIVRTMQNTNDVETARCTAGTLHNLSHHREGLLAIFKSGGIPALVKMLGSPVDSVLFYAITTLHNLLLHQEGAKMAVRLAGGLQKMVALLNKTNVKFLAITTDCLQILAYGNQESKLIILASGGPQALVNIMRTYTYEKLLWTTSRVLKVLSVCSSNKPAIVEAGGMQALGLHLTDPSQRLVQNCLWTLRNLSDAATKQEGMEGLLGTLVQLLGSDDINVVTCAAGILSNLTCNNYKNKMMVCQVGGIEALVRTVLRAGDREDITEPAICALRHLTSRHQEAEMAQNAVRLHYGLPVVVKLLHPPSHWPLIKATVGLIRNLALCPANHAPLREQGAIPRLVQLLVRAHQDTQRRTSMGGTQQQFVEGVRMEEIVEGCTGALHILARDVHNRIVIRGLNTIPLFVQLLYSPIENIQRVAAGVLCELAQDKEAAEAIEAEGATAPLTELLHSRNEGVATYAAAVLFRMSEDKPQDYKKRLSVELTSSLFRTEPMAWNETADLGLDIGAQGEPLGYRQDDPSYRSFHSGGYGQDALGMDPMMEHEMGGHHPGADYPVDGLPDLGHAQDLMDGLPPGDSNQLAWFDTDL
# T3: Bcat-Halo (beta-catenin HaloTag fusion expressed in HEK293 cells) (UniProt P35222 1-781)
# T3 sequence (looked up): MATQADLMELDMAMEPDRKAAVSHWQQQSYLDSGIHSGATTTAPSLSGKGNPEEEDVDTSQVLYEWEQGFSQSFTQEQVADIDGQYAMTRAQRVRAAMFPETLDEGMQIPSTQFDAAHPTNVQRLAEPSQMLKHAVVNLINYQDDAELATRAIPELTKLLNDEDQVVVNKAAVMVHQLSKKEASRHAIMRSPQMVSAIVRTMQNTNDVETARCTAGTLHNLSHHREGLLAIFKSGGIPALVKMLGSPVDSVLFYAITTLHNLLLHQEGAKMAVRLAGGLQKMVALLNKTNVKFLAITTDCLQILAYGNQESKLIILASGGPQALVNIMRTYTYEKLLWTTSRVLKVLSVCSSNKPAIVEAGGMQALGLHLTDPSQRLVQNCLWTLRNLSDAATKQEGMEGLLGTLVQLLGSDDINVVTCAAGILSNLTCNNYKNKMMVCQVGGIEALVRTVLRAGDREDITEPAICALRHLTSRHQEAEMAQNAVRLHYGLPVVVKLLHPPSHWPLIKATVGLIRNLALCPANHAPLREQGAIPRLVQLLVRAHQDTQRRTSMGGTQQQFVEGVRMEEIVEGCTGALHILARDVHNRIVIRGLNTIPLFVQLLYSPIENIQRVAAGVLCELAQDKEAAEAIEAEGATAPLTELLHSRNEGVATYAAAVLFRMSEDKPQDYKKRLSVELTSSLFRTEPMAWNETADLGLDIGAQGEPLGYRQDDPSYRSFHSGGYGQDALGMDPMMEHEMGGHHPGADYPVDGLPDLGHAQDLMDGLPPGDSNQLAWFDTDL
# Biological target: T1, B-cat-Halo (beta-catenin HaloTag fusion …)
# Assay: cell-based or functional assay
row,NanoBRET Abs IC50,Binder
1,19.3 µM,"Ac-[αAllylPro]D[tBuAla][B5(4)]D[Phe(3-COOH)][Aib]AF[Abu][PyrS2″][3Thi][Bta][(4Pippip)GlnR″]-NH2 (staple 1-4, 4-11) [I-2560]"
2,> 20 µM,"Ac-P[dαMeGly(allyl)]D[tBuAla][B5(4)]D[Phe(3-COOH)]AAFL[PyrS2″][Phe(2-CF3)][Bta]Q-NH2 (staple 5-12, 2-5; also: -CH=CH- in each staple reduced to -CH2-CH2-) [I-2572]"

# Biological target: T2, B-cat-Halo (beta-catenin HaloTag …)
# Assay: cell-based or functional assay
row,Binder,NanoBRET Abs IC50
1,"Ac-[αAllylPro]D[tBuAla][B5(4)]DDAAFL[PyrS2″]F[Bta]Q-NH2 (staple 1-4, 4-11) [I-1072]",10.5 µM
2,"Ac-[αAllylPro]D[tBuAla][B5(3)]DDAAFN[PyrS2″][Phe(2-Cl)][Bta][Thr(ol)] (staple 1-4, 4-11) [I-1082]",14.1 µM
3,"Ac-[αAllylPro]D[tBuAla][B5(3)]DDAAFT[S8][Phe(2-Cl)][Bta]Q-NH2 (staple 1-4, 4-11; also: later eluting staple isomer) [I-1087]",9.3 µM
4,"Ac-[αAllylPro]D[tBuAla][B5(3)]DDAAFN[PyrS2″][Phe(2-Cl)][Bta][Phe(ol)] (staple 1-4, 4-11) [I-1083]",18.8 µM
5,"Ac-[αAllylPro]D[tBuAla][B5(3)]DEAAFT[S8][Phe(2-Cl)][Bta]Q-NH2 (staple 1-4, 4-11; also: later eluting staple isomer) [I-1089]",8.9 µM
6,"Ac-[αAllylPro]D[tBuAla][B5(3)]DEAAFT[S8][Phe(2-Cl)][Bta]Q-NH2 (staple 1-4, 4-11; also: earlier eluting staple isomer) [I-1088]",6.3 µM
7,"Ac-[αAllylPro]D[tBuAla][B5(3)]DDAAFT[S8][Phe(2-Cl)][Bta]Q-NH2 (staple 1-4, 4-11; also: earlier eluting staple isomer) [I-1086]",10.1 µM
8,"Ac-[αAllylPro]D[tBuAla][B5(4)]DDAAFN[PyrS2″][Phe(2-Cl)][Bta]Q-NHEt (staple 1-4, 4-11) [I-1079]",19.7 µM

# The remaining lines, values ahead:
row,NanoBRET Abs IC50,Binder
1,6.1 µM,"Ac-[αAllylPro]D[tBuAla][B5(3)]DDAAFT[S8][Phe(2-Cl)][Bta]T-NH2 (staple 1-4, 4-11) [I-1090]"
2,11.4 µM,"Ac-[αAllylPro]D[tBuAla][B5(3)]DEAAFT[S8][Phe(2-Cl)][Bta]T-NH2 (staple 1-4, 4-11) [I-1091]"
3,7.7 µM,"Ac-[αAllylPro]D[tBuAla][B5(3)]DDAAFT[S8][Phe(2-Cl)][Bta][dT]-NH2 (staple 1-4, 4-11) [I-1092]"

# Biological target: T3, Bcat-Halo (beta-catenin HaloTag fusion …)
# Assay: cell-based or functional assay
row,NanoBRET Abs IC50,Binder
1,19.5 µM,"[αAllylPro]D[tBuAla][B5(4)]DDAAFN[PyrS2″][Ala(cPent)][Bta]Q-NH2 (staple 1-4, 4-11) [I-1352]"
